pKd: −log10 of the molar value.
Tests used:
[1] = molecular target: GASDALIE Fc (G236A/S239D/A330L/I332E IgG1 Fc), expressed as an Fc fragment (human); test: SPR
[2] = molecular target: SDALIE Fc (S239D/A330L/I332E IgG1 Fc) (human); test: SPR
[3] = molecular target: FcγRIIIa F158 variant ectodomain (as used in SPR) (human) (UniProt P08637); test: SPR
[4] = molecular target: FcγRIIa H131 variant ectodomain (human) (UniProt P12318); test: SPR
[5] = molecular target: FcγRIIb ectodomain (human) (UniProt P31994); test: SPR
[6] = molecular target: FcγRIIIa F158 (Homo sapiens) (UniProt P08637); test: SPR; details: cited from earlier work
[7] = molecular target: FcγRIIIa V158 (Homo sapiens) (UniProt P08637); test: SPR; details: cited from earlier work
[8] = molecular target: FcγRIIa H131 (Homo sapiens) (UniProt P12318); test: SPR; details: cited from earlier work
[9] = molecular target: FcγRIIa R131 (Homo sapiens) (UniProt P12318); test: SPR; details: cited from earlier work
[10] = molecular target: FcγRIIb (Homo sapiens) (UniProt P31994); test: SPR; details: cited from earlier work
[11] = molecular target: FcγRIIIa F158 ECD (Homo sapiens) (UniProt P08637); test: SPR; details: cited from earlier work
[12] = molecular target: FcγRIIIa V158 ECD (Homo sapiens) (UniProt P08637); test: SPR; details: cited from earlier work
[13] = molecular target: FcγRIIa H131 ECD (Homo sapiens) (UniProt P12318); test: SPR; details: cited from earlier work
[14] = molecular target: FcγRIIa R131 ECD (Homo sapiens) (UniProt P12318); test: SPR; details: cited from earlier work
[15] = molecular target: FcγRIIb ECD (Homo sapiens) (UniProt P31994); test: SPR; details: cited from earlier work
[16] = molecular target: FcγRIIIa V158 ECD (Homo sapiens) (UniProt P08637); test: Competition; details: cited from earlier work

With “FcγRIIIa F158 variant ectodomain (as used in SPR) (from UniProt P08637 17-218) (receptor)” the fold improved affinity compared with wtFc [1] was 431 fold and the fold improved affinity compared with wtFc [2] was 318 fold.

Work on “FcγRIIa H131 variant ectodomain (from UniProt P12318 34-211) (receptor)” yielded a fold improved affinity compared with wtFc [1] of 17 fold, a fold tighter binding than SDALIE Fc [1] of 7 fold and a fold improved affinity compared with wtFc [2] of 2 fold.

“FcγRIIb ectodomain (from UniProt P31994 43-217) (receptor)” gave a fold improved affinity compared with wtFc [1] of 6 fold.

For “GASDALIE Fc (G236A/S239D/A330L/I332E IgG1 Fc), expressed as an Fc fragment (domain or fragment)”, the pKd [3] was 6.67, the pKd [4] was 5.80 and the pKd [5] was 5.41.

In the case of IgG1 Fc Fc (from UniProt P01857), the pKd [6] is given as 5.53, the pKd [7] is given as 6.36 and the pKd [8] is given as 5.86. The pKd [9] was 5.81 and the pKd [10] was 5.60.

Substance “SDALIE Fc (S239D/A330L/I332E IgG1 Fc) (domain or fragment)” has a pKd [3] of 6.70, a pKd [4] of 5.83 and a pKd [5] of 5.66.

For “wild-type IgG1 Fc (from UniProt P01857 108-328) (domain or fragment)”, the pKd [3] was 5.35.

In the case of wtFc (IgG1) Fc (from UniProt P01857), the pKd [11] is given as 5.53, the pKd [12] is given as 6.36 and the pKd [13] is given as 5.86. The pKd [14] was 5.81, the pKd [15] was 5.60 and the pKd [16] was 6.60.

Source: PMC4769027
